Laboratory results: publication PMC11182194

Legend:
aflibercept (human) = assay: ELISA; pH 5.5; biologic titrated and captured on coated human VEGF165; 1 ug/mL hFcRn-GST added for 1 h at room temperature (100 mM phosphate, 0.15 M NaCl, 4% skimmed milk, 0.05% Tween 20); detected with HRP-conjugated anti-GST
bevacizumab (human) = assay: as above
Chain of bevacizumab (human) (heavy, as listed by the source, chain 1 of 2): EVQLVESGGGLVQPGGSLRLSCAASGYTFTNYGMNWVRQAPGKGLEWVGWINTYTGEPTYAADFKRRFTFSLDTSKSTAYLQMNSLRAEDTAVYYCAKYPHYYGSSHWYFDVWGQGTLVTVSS
Chain of bevacizumab (human) (light, as listed by the source, chain 2 of 2): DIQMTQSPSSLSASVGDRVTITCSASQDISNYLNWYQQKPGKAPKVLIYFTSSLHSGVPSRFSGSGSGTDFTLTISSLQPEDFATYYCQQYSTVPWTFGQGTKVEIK

Chain of recombinant hFcRn-GST (P55899 whole entry, looked up, tested part not stated): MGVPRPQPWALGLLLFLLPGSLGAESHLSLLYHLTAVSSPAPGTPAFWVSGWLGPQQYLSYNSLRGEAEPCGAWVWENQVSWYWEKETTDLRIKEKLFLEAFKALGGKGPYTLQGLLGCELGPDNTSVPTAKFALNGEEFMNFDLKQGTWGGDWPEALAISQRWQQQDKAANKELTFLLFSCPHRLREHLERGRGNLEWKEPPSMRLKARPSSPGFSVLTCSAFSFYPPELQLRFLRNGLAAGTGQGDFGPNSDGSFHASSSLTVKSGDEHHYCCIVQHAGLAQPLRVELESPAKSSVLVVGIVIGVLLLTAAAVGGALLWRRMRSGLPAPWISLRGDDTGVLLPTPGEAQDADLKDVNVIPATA

recombinant hFcRn-GST (from UniProt P55899 24-365) (receptor)
reduction of absorbance at D30 (capped syringe) against D0-n (aflibercept (human)): 37.5%
reduction of absorbance at D30 (capped syringe) against D0-n (bevacizumab (human)): 18.7%
